# Test results published in US20160304856A1 (AVANTGEN, published 2016).
# B1: novel anti-PSA antibody (antibody, V domains shown)
# VH: EVQLLESGGGLVQPGGSLRLSCAASGFTVSNYAMSWVRQAPGKGLEWVGDIYPTSGYTDYADSVKGRFTISRDNSKNTLYLQMNSLRAEDTAVYYCARWGYDYKYVASEGSWLFDYWGQGTLVTVSS
# VL: DIQMTQSPSSLSASVGDRVTITCRASQVSSTSLNWYQQKPGKAPKLLIYGASNLASGVPSRFSGSGSGTDFTLTISSLQPEDFATYYCQQYGHPPYTFGQGTKVEIK
# notes: Identified from a single chain library
# Target: T1, Prostate-Specific Antigen (PSA) (human, UniProt P07288 25-261)
# T1 construct: Used biotinylated or PE-labelled in flow cytometry and coated on plates in ELISA; also called PSA antigen
# T1 sequence (P07288 25-261 limits assumed): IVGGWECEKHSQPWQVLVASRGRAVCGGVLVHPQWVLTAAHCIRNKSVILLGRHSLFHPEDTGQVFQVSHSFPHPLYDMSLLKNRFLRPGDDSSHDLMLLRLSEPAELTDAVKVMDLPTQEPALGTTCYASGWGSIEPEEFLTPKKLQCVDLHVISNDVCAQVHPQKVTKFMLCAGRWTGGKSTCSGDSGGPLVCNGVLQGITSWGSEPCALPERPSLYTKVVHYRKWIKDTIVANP
# Test: method and antibody format not stated
binder,measurement,value
B1,Kd,80 pM
